Here are results for one variant from PMC11496107.

Sequences and labels used below:
B1: LXRα-VP16 (wild-type liver X receptor-α fused to VP16) [human] / Gal4-SRC1 (aa 570-780) [not stated] (parent)
chain 1: MSLWLGAPVPDIPPDSAVELWKPGAQDASSQAQGGSSCILREEARMPHSAGGTAGVGLEAAEPTALLTRAEPPSEPTEIRPQKRKKGPAPKMLGNELCSVCGDKASGFHYNVLSCEGCKGFFRRSVIKGAHYICHSGGHCPMDTYMRRKCQECRLRKCRQAGMREECVLSEEQIRLKKLKRQEEEQAHATSLPPRASSPPQILPQLSPEQLGMIEKLVAAQQQCNRRSFSDRLRVTPWPMAPDPHSREARQQRFAHFTELAIVSVQEIVDFAKQLPGFLQLSREDQIALLKTSAIEVMLLETSRRYNPGSESITFLKDFSYNREDFAKAGLQVEFINPIFEFSRAMNELQLNDAEFALLIAISIFSADRPNVQDQLQVERLQHTYVEALHAYVSIHHPHDRLMFPRMLMKLVSLRTLSSVHSEQVFALRLQDKKLPPLLSEIWDVHE
chain 2: PSRLNIQPAKAESKDNKEIASILNEMIQSDNSSSDGKPLDSGLLHNNDRLSDGDSKYSQTSHKLVQLLTTTAEQQLRHADIDTSCKDVLSCTGTSNSASANSSGGSCPSSHSSLTERHKILHRLLQEGSPSDITTLSVEPDKKDSASTSVSVTGQVQGNSSIKLELDASKKKESKDHQLLRYLLDKDEKDLRSTPNLSLDDVKVKVEKKEQ

Variants of B1 are the subject of the first assay. As to the kind of experiment: mammalian two-hybrid assay (luciferase reporter, HEK293 cells). The settings on record: with Gal4-SRC1 (aa 570-780); GOF sub-panel; highest T0901317 (T09) dose plotted (rightmost point); 20 h; parent: 100; read off a plot. For orientation: In a reporter assay the amount or activity of a reporter protein is the signal.
As for chain 1 M346V, the percent of parent came out at 100 % WT.

The same assay, now with this note: with Gal4-SRC1 (aa 570-780); GOF sub-panel; untreated condition (leftmost point, plotted an order of magnitude below the lowest T09 dose); 20 h; parent: 100; read off a plot.
Take chain 1 M346V: the percent of parent was 18 % WT.
